How the values were obtained:
[1] = target: wild-type CfaB, mature form, with N-terminal hexahistidine tag (^wtCfaB, (his)6CfaB) (enterotoxigenic Escherichia coli (ETEC)) (UniProt E3PPC4)
[2] = target: wild-type CfaB, mature form, with N-terminal hexahistidine tag (^wtCfaB, (his)6CfaB) (enterotoxigenic Escherichia coli (ETEC)) (UniProt E3PPC4); assay: pull-down

**Q.** For “wild-type CfaA with C-terminal Strep-tag (^wtCfaA, CfaA(Strep)) (natural protein)”, which kf, fast-phase rate constant of chaperone-assisted refolding of denatured CfaB [1] is on record?
**A.** 0.54 s⁻¹

**Q.** What about the ratio between CfaA and CfaB (densitometry of the pull-down) [2] of the same substance?
**A.** 0.6

Source: paper PMC5161713
